Laboratory results: the nanobody polyreactivity screen of Harvey et al. (2022)

Assay: yeast display, Sf9 membrane polyspecificity reagent, FACS + sequencing; frameworks hold sequencing errors
How it was run: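 Galactose-induced (36–48 hours) yeast carrying a synthetic nanobody display library were exposed to 10% biotinylated, detergent-solubilized Sf9 membrane reagent at 4 °C for 1 hour. FACS followed streptavidin microbead enrichment, using low and high (top ~1%) gates for expression (anti-HA) and reagent binding (streptavidin). Colony PCR, MiSeq 2 × 250 sequencing and CDR-length filtering followed. Labels for polyreactivity reflect the gate of origin.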

Sequence | polyreactivity (PSR sort gate)
QVQLVESGGGLVQAGGSLRLSCAASGFTIRRYAMGWYRQAPGKERALVAAITTGGSTYYADSVKGRFTISRDNAKNTVYLQMYSLKPEDTAVYYCATDTYPYPLYYSPGAYGYWGQGTQVTVSS | high polyreactivity
QVQLVESGGGLVQAGGSLRLSCAASGFTIRRYAMGWYRQAPGKESELVAAITTGGSTYYADSVKGRFTISRDNAKNTVYLQMNSLKPEDTAVYYCATDTYPYPLYYSPGAYGYWGQGTQVTVSS | high polyreactivity
QVQLVESGGGLVQAGGSLRLSCAASGFTIRSYVMGWYRQAPGKEREFVAAISYRGGGTNYADSVKGRFTISRDNAKNTVYLQMNSLKPEDSAVYYCNAYIVSNEGDYWGQGTQVTVSS | high polyreactivity
QVQLVESGGGLVQAGGSLRLSCAASGFTIRSYVMGWYRQAPGKERELVAAIRRSGGSTYYADSVKGRFTNSRDNAKNTVYLQMNSLKPEDTAVYYCNAPHHRYDWGQGTQVTVSS | high polyreactivity
QVQLVESGGGLVQAGGSLRLSCAASGFTISPYAMGWYRQAPGKERELVAVISKSSTRTYYADSVKGRFTISRDTAKNTVYLQMNSLKPEDTAVYYCNAGWNFVSGYYYWGQGTQVTVSS | high polyreactivity
QVQLVESGGGLVQAGGSLRLSCAASGFTISSYVMGWYRQAAGKEREVVAAISSSGARTYYADSVKGRFTISRDNAKNTVYLQMNSLKPEDTAVYYCAADNSPRPYDYWGQGTQVTVSS | high polyreactivity
QVQLVESGGGLVQAGGSLRLSCAASGFTITKYAMGWYRQAPGKERELVAAISSSGYSTYYADSVKGRFTISRDNAKNTVYFQMNSLKPEDTAVYYCAARGYYSSGVDYCGQGTQVTVSS | high polyreactivity
QVQLVESGGGLVQAGGSLRLSCAASGFTIVPYAMGWYRQAPGKERELVAAISRRGSRTYYADSVKGRFTISRDNAKNTVYLQMNSLKPEDTAVYYCAAKLSAVKAAYDYWGQGTQVTVSS | high polyreactivity
QVQLVESGGGLVQAGGSLRLSCAASGFTIVYYSMGWYRQAPGKERELVATISSGGGTNYADSVKGRFTISRDNAKNTVYLQMNSLTPEDTAVYYCAAEYYTGYFKYDYWGQGTQVTVSS | high polyreactivity
QVQLVESGGGLVQAGGSLRLSCAASGFTIWQNAMGWYRQAPGKERELVAGIRLSGGSTYADSVKGRFTISRDNAKNTVYLQMNSLKPEDTAVYYCAARIAGYYRYRYSYGYWGQGTQVTVSS | high polyreactivity
QVQLVESGGGLVQAGGSLRLSCAASGFTIWRNDMGWYRQAPGKERELVAVISTAGRTYYADSVKGRFTISRDNAKITVYLQMNSLKPEDTAVYYCAKRSYSKDQPRYGYWGQGTQVTVSS | low polyreactivity
QVQLVESGGGLVQAGGSLRLSCAASGFTIYFKAMGWYRQAPGKERELVAAISFSGGGTYYADSVKGRFTISRDNAKNTFYLQMNSLKPEDTAVYYCAADWYDWVSTYDYWGQGTQVTVSS | low polyreactivity
QVQLVESGGGLVQAGGSLRLSCAASGFTKAYAMGWSRQAPGKERELVAVISDRAGSTYYADSVKGRFTISRDNPKNTVYLQMNSLKPEDTAVYYCAADGIGYSYHGRPYIYEYWGQGTQVTVSS | low polyreactivity
QVQLVESGGGLVQAGGSLRLSCAASGFTLDDYAMGWYRQAPGKEREWVAAITSGGTYADSVKGRFTISRDNAKNTVYLQMNSLKPEDTAVYYCNAGNNVVVDYDYWGQGTQVTVSS | low polyreactivity
QVQLVESGGGLVQAGGSLRLSCAASGFTLDWYVMGWYRQAPGKEREFVASIRYSGGSTYYADSVKGRFTISRDNAKNTVYLQMNRLKTEDTAVYYCAARTVTLSYLYYYWGQGTQVTVSS | high polyreactivity
QVQLVESGGGLVQAGGSLRLSCAASGFTLEYYAMGWYRQAPGKERELVASISSGGRTNYADSVKGRFTISRDNAKNTVYLQMNSLKPEDTAVYYCAAEYRSWGRYRYRFNYWGEGTQVTVSS | high polyreactivity

Sequence | polyreactivity (PSR sort gate)
QVQLVESGGGLVQAGGSLRLSCAASGFTLFGYAMGWYRPAPGKERELVAAITSGDGRTYYADSVKGRFTISRDNAKNTVYLQMNSLKPEDTAVYYCAATRYSSYYYVRHDHWGQGTQVTVSS | low polyreactivity
QVQLVESGGGLVQAGGSLRLSCAASGFTLGGNALGWYRQAPGKERELVAAITFSGGSTYYADSVKGRFTISRDNAKNIVYLQMNSLKPVDTAVYYCAKTHGYYYYYTYDYWGQGTQVTVSS | low polyreactivity
QVQLVESGGGLVQAGGSLRLSCAASGFTLGRYAMGWYRQAPGKEREFVAAISRGGGSTNYADSVKGRFTISRDNAKNTVYLQMNSLKPEDTAVYYCAADDHTSGYGYWGQGTQVTVSS | high polyreactivity
QVQLVESGGGLVQAGGSLRLSCAASGFTLGSNVMGWYRQAPGKERELVAGISQSGGRTFYADSVKGRFTISRDNSKNTVYLQMNSLKPEDTAVYYCAARRYAVEGSKNYYWGQGTQVTVTS | low polyreactivity
QVQLVESGGGLVQAGGSLRLSCAASGFTLGSYAMGWYRQAPGKDRELVARISSDGSTNYADSVKGRFTISRDNAKNTVYLQMNSLKPEDTAVYYCAADFTYYDSPYRDYNYESWGQGAQVTVSS | low polyreactivity
QVQLVESGGGLVQAGGSLRLSCAASGFTLGVNAMGWYRQAPGKERELVAAISRGGSTDYADSVKGRFTISRDNAKNTVDLQMYSLKPEDTAVYYCAAETYAWYRGWEGYWGPGTQVTVSS | high polyreactivity
QVQLVESGGGLVQAGGSLRLSCAASGFTLGYNAMGWYRQAPGKERELVAGITWSGGSTSYADSVKGRFTISRDNAKNTVYLQMYSLKPADTAVYYCAKLRRYSGWLPWPYAYDYWGQGTQVTVSS | high polyreactivity
QVQLVESGGGLVQAGGSLRLSCAASGFTLHVYAMGWYRQAPGKERELVAAISTGGNTNFADSVKGRFTISRDNAKNTVYLQMNSLKPEDTAVYYCNTLGRYSSYYWGLGTQVTVSS | high polyreactivity
QVQLVESGGGLVQAGGSLRLSCAASGFTLIADDMGGYRQAPGKERELVAGISSGDSTDYADSVKGRFTISRDNAKNTVYVQMNSLTPEDTAVYYCAATWYGDYSRYDFYYWGQGTQVTVSS | low polyreactivity
QVQLVESGGGLVQAGGSLRLSCAASGFTLKSYAMGWYRQAPGKERELVASISRRGGSTYYADSVKGRFTISRDNAKNTVYLQMNSLKPEDTAVYYCAADRSGSSDGVYWGQGTQVTLSS | high polyreactivity
QVQLVESGGGLVQAGGSLRLSCAASGFTLKYYAMGWYRQAPGKERELVAAISSGDSTNYADSVKGRFTISRDNAKNTVYLQMNSLKPEDTAVYYCNTRYPSSSYYYWGQGTQVTVSS | low polyreactivity
QVQLVESGGGLVQAGGSLRLSCAASGFTLKYYAMGWYRQAPGKERELVAAITSSGVSTYYADSVKGRFTISRDNAKNTVYLQMNSLKPEDTAVYYCAALYWYSRSSWDYDYWGQGTQVTVSS | high polyreactivity
QVQLVESGGGLVQAGGSLRLSCAASGFTLLKYDMGWYRQAPGKERELVAAITRRGGRTSYADSVKGRFTISRDNAKNTVYLQMNSLKPEDTAVYYCNADGDTGRFDYWGQGTQVSVSS | high polyreactivity
QVQLVESGGGLVQAGGSLRLSCAASGFTLLPNAMGWYRQAPGKERELVAAITASGGRTYYADSVKGRFTISRDNAKNTVYLQMNSLKPEDSAVYYCNAGVYYYYHYTRMDYWGQGTQVTVSS | low polyreactivity
QVQLVESGGGLVQAGGSLRLSCAASGFTLNGYAMGWYRQAPGKERELVAAISSSGGRTYYADSVKGRFTISRDNAKNTVYLQMNSLKPEDTAVYYCAAVVYYEDGYWGQGTQVTVSS | low polyreactivity
QVQLVESGGGLVQAGGSLRLSCAASGFTLPANGMGWYRQAPGKERELVAAISFIAGSTYYADSVKGRFTISRDNAKNTVYLQMNSLKPEDTAVYYCATQFPPSTIYYYWGQGTQVTVSS | low polyreactivity
